The values below come from PMC4140821, “Structural and Biochemical Characterization of the Cop9 Signalosome CSN5/CSN6 Heterodimer” (PLoS ONE, 2014).

Substitutions are numbered along the chain they refer to. Names may count otherwise.

For series [1], the target named is T1, CSN5^ΔC,R106T (human, UniProt Q92905 1-257, R106T).
T1 construct: COP9 signalosome subunit 5 (CSN5, Jab1), human, residues 1-257, R106T in the Ins-1 region; also called conformationally-relaxed CSN5^ΔC variant; R106T variant
T1 sequence (Q92905 1-257 R106T): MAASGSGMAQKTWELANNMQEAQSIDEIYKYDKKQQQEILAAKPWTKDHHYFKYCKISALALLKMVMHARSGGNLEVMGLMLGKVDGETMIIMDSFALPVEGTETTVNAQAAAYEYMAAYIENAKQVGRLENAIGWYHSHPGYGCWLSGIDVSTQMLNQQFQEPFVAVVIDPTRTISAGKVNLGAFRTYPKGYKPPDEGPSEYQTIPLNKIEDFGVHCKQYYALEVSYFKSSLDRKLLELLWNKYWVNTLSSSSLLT
The experiment in a line: ITC; CSN6^ΔC (WT and variants; 1 mM, 30 injections of 1.8 µL) injected into CSN5^ΔC (WT and variants; 100 µM) in the cell; 20°C; 20 mM Na MES pH 6.5, 75 mM NaCl; one site model; apparent. The conditions noted are these: both partners purified. (In general: In ITC the heat of successive injections is recorded.)

For series [2], the target named is T2, CSN5^ΔC,WT (human CSN5 1–257 fragment) (human, UniProt Q92905 1-257).
T2 construct: COP9 signalosome subunit 5 (CSN5, Jab1), human, residues 1-257 (MPN domain with N- and C-terminal appendices); also called CSN5 catalytic domain; Jab1 fragment
T2 sequence (Q92905 1-257, stated change not applied): as the sequence (Q92905 1-257 R106T) above, with T106R counted along it
The description is as above. The conditions noted are these: both partners purified.

Series [3] deals with the molecule itself. Description: crystal structure; CSN6^ΔC alone; crystals at 18°C in 0.2 M tri-sodium citrate, 0.1 M Bis-Tris propane pH 6.5, 20% PEG3350; dimer generated by the crystallographic 2-fold.

B1: CSN6^ΔC (human CSN6 31–211 fragment) (domain or fragment, UniProt Q7L5N1 31-211, looked up)
chain: MACGVTGSVSVALHPLVILNISDHWIRMRSQEGRPVQVIGALIGKQEGRNIEVMNSFELLSHTVEEKIIIDKEYYYTKEEQFKQVFKELEFLGWYTTGGPPDPSDIHVHKQVCEIIESPLFLKLNPMTKHTDLPVSVFESVIDIINGEATMLFAELTYTLATEEAERIGVDHVARMTATGS
notes: COP9 signalosome subunit 6 (CSN6), human, residues 31-211 (MPN domain with a C-terminal extension); Cloned in pGEX-6P1; Uniformly 15N-labelled for NMR; also called CSN6 N-terminal domain; CSN6 MPN domain; source: LB or 15NH4Cl M9 medium for NMR; not shown: GST, N-terminal, cleaved
Regarding B1, the binding result in series [1] and in series [3] was “binds” throughout. Further, in series [2], the Kd came to 6 ± 1 µM.

B2: CSN6^ΔC,V115E (domain or fragment, human, UniProt Q7L5N1 31-211, looked up)
chain: B1 chain with V85E
notes: COP9 signalosome subunit 6 (CSN6), human, residues 31-211, V115E; everywhere else V115E; also called V115E variant; not shown: GST, N-terminal, cleaved
As for B2, the “fold reduction in binding against WT CSN6^ΔC” value in series [2] was 5 fold.
